Laboratory results reported in patent US20140065154A1, “TLR3 BINDING AGENTS” (INNATE PHARMA, priority 2011, published 2014).
Entries after “also recorded” stand apart in the source; their conditions may differ.

What was measured:
TLR3 [1] = target: T1, TLR3 (Homo sapiens, UniProt O15455); experiment: Myeloid DC (MdDC) secretion and expression inhibition test; type: cell-based; set-up: Myeloid DC (MdDC) were obtained from PBMC by isolating PBMC from normal healthy human donors; endogenous in cells; host or cells: human monocyte-derived DC (CD14+ monocytes cultured with GM-CSF and IL-4); conditions: polyAU
Procedure: Myeloid DC (MdDC) were obtained from PBMC by isolating PBMC from normal healthy human donors. Monocytes were purified from PBMC using positive selection with human CD14 microbeads (Miltenyi Biotech) following general instructions. Monocytes were further derived into DC (MdDC) by 5-6 days incubation in human GM-CSF (Leucomax, SP) and human IL-4 (R&D Systems) at respectively 200 ng/ml and 20 ng/ml.
The resulting MdDC were then seeded at 10^6 cells/ml, in duplicate, in flat bottom 96-well plates. Cells were activated for 20 hours in a final volume of 200 μl, together with the anti-TLR3 antibodies at the indicated concentrations. Increasing amounts of polyAU were added to the wells to obtain a dose effect read-out at the dose and timepoint as indicated.
Supernatants were collected after 20 h of stimulation, frozen at −20° C., and further assayed for IL-6 and IP-10 using Enzyme-linked immunosorbent assay. Cells were then harvested, stained for activation markers CD86 (with a.huCD86 mouse, IgG1, FITC, BD Biosciences, ref 555657), with detection using FACSCanto™ flow cytometer (BD Biosciences).
Myeloid DC (MdDC) secretion inhibition test is performed according to the section titled Materials and Methods.

TLR3 [2] = target: T1, TLR3; experiment: SPR competition assay with polyAU in acidic buffer; type: binding; set-up: purchased R&D Systems; conditions: pH 5.6
Procedure: (a) General Biacore T100 methods. SPR measurements were performed on a Biacore T100 apparatus (Biacore GE Healthcare) at 25° C. In all Biacore experiments HBS-EP+ buffer (Biacore GE Healthcare) or 10 mM sodium acetate pH 5.6, 150 mM NaCl, 0.05% P20 served as running buffer and sensorgrams were analyzed with Biaevaluation 4.1 and Biacore T100 Evaluation software. Recombinant human and mouse TLR3 were purchased from R&D Systems. (b) Protein immobilization. Recombinant TLR3 protein was immobilized covalently to carboxyl groups in the dextran layer of a Biacore Series 5 Sensor Chip CM5 (chip). The chip surface was activated with EDC/NHS (0.2M N-ethyl-N′-(3-dimethylaminopropyl) carbodiimidehydrochloride, 0.05M N-hydroxysuccinimide (Biacore GE Healthcare)). […] Deactivation of the remaining activated groups was performed using 100 mM ethanolamine pH 8 (Biacore GE Healthcare). (c) Antibody binding analysis was run using HBS-EP+ (neutral pH). Antibodies at a concentration of 10 μg/ml were injected for 2 min at a constant flow rate of 10 μl/min over the immobilized proteins and allowed to dissociate for 3 min before regeneration by a ten second injection of 10 mM NaOH, 500 mM NaCl regeneration buffer. Blank correction was performed on line by co-injecting the soluble antibodies onto the reference dextran flow cell. (d) Competition assay in acidic buffer (pH 5.6). Flow rate was set to 10 μl/min, the first antibody at a concentration of 50 μg/ml (or polyAU at 100 μg/ml) was injected for 2 min, 3 times successively in order to saturate the rhTLR3 surface. The second antibody (or polyAU at 100 μg/ml when the polyAU was added after first antibody) was then injected for 2 min also at 50 μg/ml and allowed to dissociate for 3 min before regeneration by a 15 second injection of 10 mM NaOH, 500 mM NaCl regeneration buffer. Blank correction was also performed on line and the curve using the saturating antibody (or neucleic acid) followed by an injection of buffer subtracted to remove the signal due to the dissociation of the first complex. The resulting signal was compared to that obtained by the injection of the second antibody directly onto the rhTLR3 surface.
Competition assays were conducted according to the methods described for SPR, item d) at pH 5.6.
Buffer (followed by polyAU) is represented in the lower line, while 31C3 followed by polyAU is in the upper line.

TLR3 [3] = target: T1, TLR3; experiment: SPR (Biacore) bivalent affinity on immobilized TLR3; type: binding; set-up: purchased R&D Systems; conditions: neutral pH; own vs commercially available antibodies
Procedure: (a) General Biacore T100 methods. SPR measurements were performed on a Biacore T100 apparatus (Biacore GE Healthcare) at 25° C. In all Biacore experiments HBS-EP+ buffer (Biacore GE Healthcare) or 10 mM sodium acetate pH 5.6, 150 mM NaCl, 0.05% P20 served as running buffer and sensorgrams were analyzed with Biaevaluation 4.1 and Biacore T100 Evaluation software. Recombinant human and mouse TLR3 were purchased from R&D Systems. (b) Protein immobilization. Recombinant TLR3 protein was immobilized covalently to carboxyl groups in the dextran layer of a Biacore Series 5 Sensor Chip CM5 (chip). The chip surface was activated with EDC/NHS (0.2M N-ethyl-N′-(3-dimethylaminopropyl) carbodiimidehydrochloride, 0.05M N-hydroxysuccinimide (Biacore GE Healthcare)). […] Deactivation of the remaining activated groups was performed using 100 mM ethanolamine pH 8 (Biacore GE Healthcare). (c) Antibody binding analysis was run using HBS-EP+ (neutral pH). Antibodies at a concentration of 10 μg/ml were injected for 2 min at a constant flow rate of 10 μl/min over the immobilized proteins and allowed to dissociate for 3 min before regeneration by a ten second injection of 10 mM NaOH, 500 mM NaCl regeneration buffer. […]
Binding to TLR3 was determined at neutral (pH 7.2) and acid (pH 5.6) conditions, and KD values were calculated. […]

TLR3 [4] = target: T1, TLR3; experiment: IP-10 production by donor PBMC in response to dsRNA and drug combinations; type: cell-based; conditions: mAb 50 μg/ml
Procedure: IP-10 production was assessed in human donors in response to polyAU (IPH3102), believed to be a specific agonist of TLR3, or pIC, believed to be an agonist of TLR3 as well as other dsRNA receptors such as RIG-I and MDA-5. Fresh PBMC were isolated from whole blood of two independent donors. […] Cells were incubated 1 hr at 37° C. prior addition of 300 μg/ml IPH3102 or 30 μg/ml poly(I:C). Cells were incubated for 24 additional hours at 37° C. Supernatant were then harvested to quantify IP10 production by ELISA. Cells were then recovered, stained with 7-AAD and analyzed by flow cytometry (FACS) to evaluate potential toxic effects of any drugs.

TLR3 [5] = target: T1, TLR3; experiment: 293T-TLR3-ISRE luciferase reporter gene assay; type: cell-based; set-up: host or cells: 293T (ATCC #CRL-1573), stably carrying pISRE-luc; conditions: dsRNA TLR3 agonist
Source text: A reporter gene assay using as promoter ISRE (IFN-stimulated response element) and as reporter gene and protein luciferase was set up. A 293T cell line (ATCC, #CRL-1573) was stably transfected with pISRE-luc plasmid (#219089—Stratagene), further selected by cloning as inducing optimal response to IFN-alpha stimulation and referred to as control 293T-ISRE. This cell line was further stably transfected with pUNO-humanTLR3 plasmid (#puno-htlr3—InVivogen) or pUNO-mouseTLR3 plasmid (#puno-mtlr3—InVivogen) and referred to as 293T-TLR3-ISRE and 293T-mTLR3-ISRE respectively. On day 0, cells are seeded at 4×10^5 cells/mL in complete culture medium in 96-well culture plate (100 μl/well). Cells are first incubated at 37° C. for 20 hours, then 50 μL of medium are discarded and cells are activated with 100 μL/well final of increasing amounts of polyAU together with various concentrations of anti-TLR3 antibodies. Cells incubated with fresh medium will be used as background luciferase activity. Cells are incubated at 37° C. for 6 hours. 100 μL of freshly thawed Steady Glo (Promega) are added to each well, plates were incubated 10 min at RT in the dark and the light emitted in each well is quantified as Count Per Second (CPS) on a gamma-counter (TopCount) apparatus.
Antibodies were tested for inhibition of TLR3 signaling in a luciferase based reporter gene activity (293T-TLR3-ISRE). […] Briefly, dsRNA TLR3 agonists were used to induce TLR3 signaling in the reporter assay in the presence of anti-TLR3 antibodies, and TLR3 signaling was assessed.
In a further set of experiments, 293-huTLR3 cells were incubated with different concentrations of the anti-TLR3 mAbs for 1 to 2 hours (see FIG. 1A; mAb concentration is represented in axis in μg/ml on a logarithmic scale) followed by the addition to the medium of the TLR3 agonist polyAU at a concentration of 300 μg/ml. Luciferase expression was measured after 6 h. […]
Similarly the kinetics of inhibition of the antibodies was evaluated in 293T-TLR3 luciferase assay. […] Luciferase expression was measured at 6 h post poly(A:U) addition. […]

[6] = target: T2, recombinant human TLR3 extracellular domain (R&D Systems) (human, UniProt O15455 27-711); experiment: SPR (Biacore T100), rhTLR3 immobilised on CM5 chip, bivalent affinity, pH 7.2, mean of 2 or 3 experiments
T2 construct: also called rhTLR3; human rec TLR3; not shown: His tag (R&D #1487-TR)

[7] = target: T2, recombinant human TLR3 extracellular …; experiment: SPR (Biacore T100), rhTLR3 immobilised on CM5 chip, bivalent affinity, pH 5.6, mean of 2 or 3 experiments
Procedure: (a) General Biacore T100 methods. SPR measurements were performed on a Biacore T100 apparatus (Biacore GE Healthcare) at 25° C. In all Biacore experiments HBS-EP+ buffer (Biacore GE Healthcare) or 10 mM sodium acetate pH 5.6, 150 mM NaCl, 0.05% P20 served as running buffer and sensorgrams were analyzed with Biaevaluation 4.1 and Biacore T100 Evaluation software. Recombinant human and mouse TLR3 were purchased from R&D Systems. (b) Protein immobilization. Recombinant TLR3 protein was immobilized covalently to carboxyl groups in the dextran layer of a Biacore Series 5 Sensor Chip CM5 (chip). The chip surface was activated with EDC/NHS (0.2M N-ethyl-N′-(3-dimethylaminopropyl) carbodiimidehydrochloride, 0.05M N-hydroxysuccinimide (Biacore GE Healthcare)). […] Deactivation of the remaining activated groups was performed using 100 mM ethanolamine pH 8 (Biacore GE Healthcare). (c) Antibody binding analysis was run using HBS-EP+ (neutral pH). Antibodies at a concentration of 10 μg/ml were injected for 2 min at a constant flow rate of 10 μl/min over the immobilized proteins and allowed to dissociate for 3 min before regeneration by a ten second injection of 10 mM NaOH, 500 mM NaCl regeneration buffer. Blank correction was performed on line by co-injecting the soluble antibodies onto the reference dextran flow cell. (d) Competition assay in acidic buffer (pH 5.6). […]

Row | binding affinity for TLR3 compared (TLR3 [3]) | IP-10 production in response to polyAU (TLR3 [4]; donor 2, IPH3102 300 μg/ml) | IP-10 production in response to polyIC (TLR3 [4]; donors 1 and 2, poly(I:C) 30 μg/ml) | Kd [6] [nM] | Kd [7] [nM] | Molecule | TLR3-mediated CD83/CD86 expression (TLR3 [1]) | TLR3-mediated cytokine/chemokine secretion (IP-10, IL-6) (TLR3 [1]) | antibody binding to TLR3 chip previously incubated with polyAU (TLR3 [2]) | inhibition of TLR3 signaling (TLR3 [5])
1 | significantly better |  |  |  |  | 29H3: anti-human TLR3 monoclonal antibody, IgG1; VH SEQ ID NO: 10, VL SEQ ID NO: 11; CNCM I-4187 (antibody, listed as Mus musculus, V domains shown, SIGNAL (1)..(18); SIGNAL (1)..(20), anti-human TLR3 monoclonal antibody, IgG1; CNCM I-4187) VH: MRVLILLCLFTAFPGILSDVQLQESGPDLVKPSQSLSLTCTVTGYSITSGYSWHWIRQFLGNKLEWMGYIHYSGITNYNPSLRSRISFTRDTSKNQFFLQLNSVTTEDTATYYCARDGYYGMDYWGQGTSVTVS VL: MDFQTQVFVFVLLWLSGVDGDIVMTQSQKFMSTSVGDRVSITCKASQNVRTSVAWYQQKPGQSPKALIYLASNRHTGVPDRFTGSGSGTDFTLTVSNIQSEDLADYFCLQHWNYPYTFGGGTKLEIK | effectively downregulated TLR3-mediated CD83/CD86 expression | abrogated TLR3-mediated cytokine/chemokine secretion | able to bind TLR3 even in the presence of polyAU | 
2 |  | substantially reduce IP-10 production | substantially reduce IP-10 production |  |  | 34A3: anti-human TLR3 monoclonal antibody; VH SEQ ID NO: 34, VL SEQ ID NO: 35 (antibody, listed as Mus musculus, V domains shown, SIGNAL (1)..(19); SIGNAL (1)..(22)) VH: MEWRWIFLFLLSGTTGVHSEIQLQQSGPELVKPGASVKVSCKASGYVFTTYSIYWVKQSHGKSLEWIGYIDPYNGDTSYNQKFKGKATLTVDKSSSTAYMHLNSLTSEDSTVYYCAREGNYYGYFDYWGQGTTLTVS VL: MDFQVQIFSFLLMSASVIMSRGQIVLTQSPALMSASPGEKVTMTCSASSSVSYMFWYQQKPRSSPKPWIYLTSNLASGVPARFSGSGSGTSYSLTISSMEAEDAATYYCQQWTGNPPTFGGGTKLEIK |  |  | able to bind TLR3 even in the presence of polyAU | strongly inhibited TLR3 signaling in a dose dependent fashion; also recorded: enhanced inhibition effect at low concentrations
3 |  |  |  | 0.0474 | 0.011 | antibody 29H3 (antibody, V domains shown, also called 29H3.7; CNCM I-4187) VH: DVQLQESGPDLVKPSQSLSLTCTVTGYSITSGYSWHWIRQFLGNKLEWMGYIHYSGITNYNPSLRSRISFTRDTSKNQFFLQLNSVTTEDTATYYCARDGYYGMDYWGQGTSVTVS VL: DIVMTQSQKFMSTSVGDRVSITCKASQNVRTSVAWYQQKPGQSPKALIYLASNRHTGVPDRFTGSGSGTDFTLTVSNIQSEDLADYFCLQHWNYPYTFGGGTKLEIK | effectively downregulated TLR3-mediated CD83/CD86 expression | abrogated TLR3-mediated cytokine/chemokine secretion, to a similar extent as full length antibodies |  | 
